For data set [1], the system named is mouse primary hindbrain neurons (MPHN). Put plainly: Calcium flux in primary hindbrain neurons. Type of data set: cell-based. The note with it: MPHN treated with undercarboxylated or carboxylated osteocalcin. As for the experimental part:
For calcium imaging, primary hindbrain neurons seeded on 12 mm coverslips were allowed the appropriate time to form structural networks. These cultures were washed with HBSS and loaded with 2.5 μM FURA-2, AM calcium indicator for 45 minutes at room temperature, according to the manufacturer's protocol. Cells were then washed to remove excess indicator and incubated for 30 minutes to allow internalized esters to become de-esterified. 30 ng/ml of osteocalcin was prepared with the control buffer of 1×HBBS supplemented with 10 mM HEPES buffer and 2 mM CaCl2. Using a Zeiss microscope with a perfusion system, coverslips were first perfused with control and osteocalcin. After each stimulation, cells were depolarized with 50 mM KCl to determine the percentage of live cells being imaged. All treatments were recorded using two-photon laser scanning microscopy by Prairie Technologies and analyzed by Z axis profile plotting using ImageJ.
To determine if osteocalcin acts directly on neurons to modulate neurotransmitter synthesis, several types of assays were performed. First, brainstem and midbrain explants from WT and Gprc6a^−/− mice were generated. […] Third, to further confirm that osteocalcin signals in neurons of the hindbrain, calcium flux in MPHN treated with undercarboxylated or carboxylated osteocalcin (FIG. 3F) was measured. […]

In data set [2] the test system is brainstem and midbrain explants from WT and Gprc6a-/- mice. As to the kind of experiment: Gene expression (qPCR) in brainstem and midbrain explants. The note with it: leptin, WT or Gprc6a-/- brainstem explants. Type of data set: cell-based, mouse. As for the experimental part: For gene expression studies, RNA was isolated from primary neurons or tissue using TRIZOL® (Invitrogen). cDNA synthesis was performed following a standard protocol from Invitrogen and qPCR analyses were done using specific quantitative PCR primers from SABiosciences (www.sabiosciences.com/RT2PCR.php).
Brains were dissected and incubated for 30 minutes in ice cold oxygenated artificial cerebrospinal fluid (ACSF). Brains were then sliced at 500 μm at the midbrain, −1.55 to −2.35 mm from the bregma, and at the level of the brainstem, from −4.04 to −4.48 mm and from −4.60 to −5.20 mm from the bregma, to include the median and dorsal raphe, respectively. These slices were incubated in ACSF for 1 h, constantly oxygenated (95% 02 and 5% CO2) for 4 h, after which they were treated with either osteocalcin (10 ng/ml) or PBS for four hours. Expression of Tph2, TH, GAD1, GAD2, and Ddc was measured by qPCR.
To determine if osteocalcin acts directly on neurons to modulate neurotransmitter synthesis, several types of assays were performed. First, brainstem and midbrain explants from WT and Gprc6a^−/− mice were generated. Brains were sliced (500 μm) at the level of the median and dorsal raphe of the brainstem (from −4.04 to −4.48 mm and from −4.60 to −5.20 mm, respectively), so that they would be enriched in serotonin-producing neurons, as well as at the level of substantia nigrae and ventral tegmental areas (VTA) of the midbrain (from −1.55 to −2.35 mm and from −2.55 to −3.25 mm, respectively). Enrichment in serotoninergic and catecholaminergic neurons in these explants was verified by their high Tph2 and Th expression. While leptin, used here as a positive control, reduced, as it should, Tph2 expression in WT or Gprc6a^−/− brainstem explants, osteocalcin (3 ng/ml) increased expression of this gene 2.5 fold in both WT and Gprc6a^−/− explants. (FIG. 3D). Additionally, osteocalcin increased Th expression in midbrain explants and decreased Gad1 expression in both WT and in Gprc6a^−/− hindbrain explants (FIG. 3D). Second, the cultured WT and Gprc6a^−/− mouse primary hindbrain neurons (MPHN) were treated with osteocalcin (3 ng/ml). […] Third, to further confirm that osteocalcin signals in neurons of the hindbrain, calcium flux in MPHN treated with undercarboxylated or carboxylated osteocalcin (FIG. 3F) was measured. […] Moreover, osteocalcin inhibits the action potential frequency of the GABAergic interneurons of the hindbrain (FIG. 3H).
(Real-time PCR tracks product formation cycle by cycle.)

Data set [3] is described as follows: Positive control for blood brain barrier crossing: subcutaneous leptin infusion in ob/ob mice, content measured in brain. The note with it: subcutaneous infusion 50 ng/hour, seven days, 3 month-old ob/ob mice. Type of data set: in vivo, mouse. As for the experimental part: FIG. 3. Osteocalcin binds to neurons in the brain. (A) Measurement of the total osteocalcin in 3 month-old Osteocalcin^−/− mice infused subcutaneously for 7 days with either uncarboxylated osteocalcin (300 ng/hour, right panel) or PBS (left panel). Osteocalcin levels were measured in bone, serum, and different parts of the brain (cortex, midbrain, hypothalamus, brainstem, and cerebellum). (B) Subcutaneous infusion of leptin ([…], right panel) or PBS (left panel) for 7 days in ob/ob mice. Leptin levels were measured in serum, cortex, midbrain, hypothalamus, brainstem, and cerebellum. […]
Osteocalcin^−/−, Gprc6a^−/−, Osteocalcin-mCherry, and Osteocalcin floxed mice have been previously described (Ducy et al., 1996, Nature 382:448-452; Oury et al., 2011, Cell 144:796-809). Mouse genotypes were determined by PCR. […] Leptin and osteocalcin content in sera and tissues were determined by ELISA.
To understand how this behavioral phenotype develops, whether osteocalcin crosses the blood brain barrier (BBB) was tested by installing pumps that subcutaneously delivered vehicle or uncarboxylated osteocalcin (50 ng/hour) in three-month-old Osteocalcin^−/− mice. […] Seven days later, osteocalcin and leptin content were measured in blood, bone, and in various parts of the brain in Osteocalcin−/− and ob/ob mice, respectively. […]

No end group written: not given here.

This note sets out measurements from patent publication US10052364B2, “Osteocalcin as a treatment for cognitive disorders” (THE TRUSTEES OF COLUMBIA UNIVERSITY IN THE CITY OF NEW YORK, priority 2013, dated 2018).

“carboxylated osteocalcin: Carboxylated (Gla) form of osteocalcin used as comparison in the calcium flux assay (YLGASVPSPDPLEPTREQCELNPACDELSDQYGLKTAYKRIYGITI; ends and bridges not checked; also: gamma-carboxylated (Gla) form, places not given here; UniProt P86546 50-95, looked up) [reference compound]”: the “calcium fluxes in primary hindbrain neurons” value in data set [1] is recorded as “not”.

B1: leptin: adipocyte-derived hormone, positive control known to cross the BBB (protein, UniProt P41160 22-167, looked up)
Leptin: VPIQKVQDDTKTLIKTIVTRINDISHTQSVSAKQRVTGLDFIPGLHPILSLSKMDQTLAVYQQVLTSLPSQNVLQIANDLENLRDLLHLLAFSKSCSLPQTSGLQKPESLDGVLEASLYSTEVVALSRLQGSLQDILQQLDVSPEC
Take B1: the “Tph2 expression in brainstem explants (positive control)” value in data set [2] is recorded as “reduced”. The “leptin content in parts of the brain” value in data set [3] is “could be detected in the brainstem and hypothalamus”.
